Results published in patent publication US20020132977A1 (Harvard, published 2002).

Molecular target: T1, GFP-tagged p73 (human, UniProt O15350 1-636)
T1 construct: also called GFP-p73; not shown: GFP (pEGFP vector)
T1 sequence: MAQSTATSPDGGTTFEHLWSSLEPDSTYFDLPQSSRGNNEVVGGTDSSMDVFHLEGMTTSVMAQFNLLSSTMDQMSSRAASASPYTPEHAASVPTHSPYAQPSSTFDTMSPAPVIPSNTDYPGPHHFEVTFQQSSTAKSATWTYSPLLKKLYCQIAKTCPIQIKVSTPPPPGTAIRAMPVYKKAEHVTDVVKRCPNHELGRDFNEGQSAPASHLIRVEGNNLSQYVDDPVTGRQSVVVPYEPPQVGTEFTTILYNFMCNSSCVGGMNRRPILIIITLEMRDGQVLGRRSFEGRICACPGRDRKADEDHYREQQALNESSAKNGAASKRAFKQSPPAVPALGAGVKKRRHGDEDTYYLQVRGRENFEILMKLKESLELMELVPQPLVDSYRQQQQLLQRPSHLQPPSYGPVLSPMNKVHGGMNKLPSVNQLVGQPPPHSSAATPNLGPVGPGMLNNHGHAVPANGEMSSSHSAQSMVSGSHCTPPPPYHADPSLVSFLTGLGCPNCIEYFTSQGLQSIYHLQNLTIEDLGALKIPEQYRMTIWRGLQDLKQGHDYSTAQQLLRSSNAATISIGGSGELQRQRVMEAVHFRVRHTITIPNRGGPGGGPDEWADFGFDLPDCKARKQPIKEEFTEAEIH
Assay: anti-Flag IP, anti-GFP Western

B1: p73β (p53aa319-364) (other)
chain: MAQSTATSPDGGTTFEHLWSSLEPDSTYFDLPQSSRGNNEVVGGTDSSMDVFHLEGMTTSVMAQFNLLSSTMDQMSSRAASASPYTPEHAASVPTHSPYAQPSSTFDTMSPAPVIPSNTDYPGPHHFEVTFQQSSTAKSATWTYSPLLKKLYCQIAKTCPIQIKVSTPPPPGTAIRAMPVYKKAEHVTDVVKRCPNHELGRDFNEGQSAPASHLIRVEGNNLSQYVDDPVTGRQSVVVPYEPPQVGTEFTTILYNFMCNSSCVGGMNRRPILIIITLEMRDGQVLGRRSFEGRICACPGRDRKADEDHYREQQALNESSAKNGAASKRAFKQSPPAVPALGAGVKKKPLDGEYFTLQIRGRERFEMFRELNEALELKDAQAGKEPGGSRAQQQQLLQRPSHLQPPSYGPVLSPMNKVHGGMNKLPSVNQLVGQPPPHSSAATPNLGPVGPGMLNNHGHAVPANGEMSSSHSAQSMVSGSHCTPPPPYHADPSLVRTWGP
notes: range 1-344;range 391-C-terminus; also called p73 chimera with OD of p53; Flag-tagged p53-p73 chimera with switched OD; not shown: Flag tag
Does B1 bind?
Result: no binding
